Data as given in the RNAGym collection of RNA variant scans (doi:10.1021/acssynbio.7b00057).

B1: Pistol ribozyme (parent)
chain: GGGUCGUUGUUCCAUAAUCGCGUGGAUAUGGCACGCAAGUUUCUACCGGGCACCGUAAAUGUCCGACUGGAGCCGUUCGGGCGGCUAUAAACAGACCUCAGGCCCGAAGCGUGGCGGCACCUGCCGCCGGUGGUAAAAAAGAUCGGAAGAGCACACGUCU

Variants of: B1
Test: aptazyme ON/OFF ratio, guanine; higher = stronger switching; co-transcriptional cleavage with and without guanine
For U7A U8A G9A U10C U11C C12U C13U, the “aptazyme ON/OFF ratio” value was 1.05.
In the case of U7A U8A G9A U10C U11C C12U C13G, the “aptazyme ON/OFF ratio” value is reported as 1.03.
In the case of U7A U8A G9A U10A U11G C12G, the “aptazyme ON/OFF ratio” value is reported as 1.16.
In the case of U7A U8A G9A U10A U11G C12A, the “aptazyme ON/OFF ratio” value is reported as 1.04.
For U7A U8A G9A U10A U11G C12U, the “aptazyme ON/OFF ratio” value was 1.19.
With U7A U8A G9A U10G C13U the “aptazyme ON/OFF ratio” value was 1.34.
For U7A U8A G9A U10G C13A, the “aptazyme ON/OFF ratio” value was 1.6.
With U7A U8A G9A U10G C13G the “aptazyme ON/OFF ratio” value was 1.46.
With U7A U8A G9A U10G U11A C12A C13U the “aptazyme ON/OFF ratio” value was 1.2.
With U7A U8A G9A U10G U11A C12A C13G the “aptazyme ON/OFF ratio” value was 1.18.
In the case of U7A U8A G9A U10G U11A C12A C13A, the “aptazyme ON/OFF ratio” value is reported as 1.02.
With U7A U8A G9A U10C U11G C13U the “aptazyme ON/OFF ratio” value was 1.09.
In the case of U7A U8A G9A U10C U11G C13A, the “aptazyme ON/OFF ratio” value is reported as 1.08.
For U7A U8A G9A U10C U11G C13G, the “aptazyme ON/OFF ratio” value was 1.24.
In the case of U7A U8A G9A U10C U11C C12G C13A, the “aptazyme ON/OFF ratio” value is reported as 1.08.
For U7A U8A G9A U10C U11C C12G C13U, the “aptazyme ON/OFF ratio” value was 1.
For U7A U8A G9A U10C U11C C12G C13G, the “aptazyme ON/OFF ratio” value was 1.07.
For U7A U8A G9A U10C U11G C12A, the “aptazyme ON/OFF ratio” value was 1.12.
For U7A U8A G9A U10C U11G C12U, the “aptazyme ON/OFF ratio” value was 1.11.
With U7A U8A G9A U10C U11G C12G the “aptazyme ON/OFF ratio” value was 1.23.
For U7A U8A G9A U10G U11C C13G, the “aptazyme ON/OFF ratio” value was 1.08.
In the case of U7A U8A G9A U10G U11C C13U, the “aptazyme ON/OFF ratio” value is reported as 1.03.
In the case of U7A U8A G9A U10G U11C C13A, the “aptazyme ON/OFF ratio” value is reported as 1.08.
In the case of U7A U8A G9A U10A U11G C12U C13U, the “aptazyme ON/OFF ratio” value is reported as 1.3.
For U7A U8A G9A U10A U11G C12U C13G, the “aptazyme ON/OFF ratio” value was 1.24.
In the case of U7A U8A G9A U10A U11G C12U C13A, the “aptazyme ON/OFF ratio” value is reported as 1.3.
In the case of U7A U8A G9A U10C U11A C13A, the “aptazyme ON/OFF ratio” value is reported as 1.11.
With U7A U8A G9A U10C U11A C13U the “aptazyme ON/OFF ratio” value was 1.09.
With U7A U8A G9A U10C U11A C13G the “aptazyme ON/OFF ratio” value was 1.09.
In the case of U7A U8A G9A U10A U11G C12G C13U, the “aptazyme ON/OFF ratio” value is reported as 1.59.
In the case of U7A U8A G9A U10A U11G C12G C13A, the “aptazyme ON/OFF ratio” value is reported as 1.25.
For U7A U8A G9A U10A U11G C12G C13G, the “aptazyme ON/OFF ratio” value was 1.32.
For U7A U8A G9A U10C U11A C12G C13A, the “aptazyme ON/OFF ratio” value was 1.08.
In the case of U7A U8A G9A U10C U11A C12G C13G, the “aptazyme ON/OFF ratio” value is reported as 1.11.
With U7A U8A G9A U10C U11A C12G C13U the “aptazyme ON/OFF ratio” value was 1.1.
For U7A U8A G9A U10G U11C C12A, the “aptazyme ON/OFF ratio” value was 1.26.
In the case of U7A U8A G9A U10G U11C C12U, the “aptazyme ON/OFF ratio” value is reported as 1.05.
With U7A U8A G9A U10G U11C C12G the “aptazyme ON/OFF ratio” value was 1.13.
For U7A U8A G9A U10G C12A, the “aptazyme ON/OFF ratio” value was 1.18.
With U7A U8A G9A U10G C12G the “aptazyme ON/OFF ratio” value was 1.32.
With U7A U8A G9A U10G C12U the “aptazyme ON/OFF ratio” value was 1.14.
With U7A U8A G9A U10C U11C C13U the “aptazyme ON/OFF ratio” value was 1.06.
For U7A U8A G9A U10C U11C C13A, the “aptazyme ON/OFF ratio” value was 1.01.
In the case of U7A U8A G9A U10C U11C C13G, the “aptazyme ON/OFF ratio” value is reported as 0.997.
In the case of U7A U8A G9A U10A U11G C13G, the “aptazyme ON/OFF ratio” value is reported as 1.18.
In the case of U7A U8A G9A U10A U11G C13A, the “aptazyme ON/OFF ratio” value is reported as 1.17.
With U7A U8A G9A U10A U11G C13U the “aptazyme ON/OFF ratio” value was 1.16.
In the case of U7A U8A G9A U10G U11G C12A, the “aptazyme ON/OFF ratio” value is reported as 1.18.
With U7A U8A G9A U10G U11G C12G the “aptazyme ON/OFF ratio” value was 1.52.
With U7A U8A G9A U10G U11G C12U the “aptazyme ON/OFF ratio” value was 1.33.
For U7A U8A G9A U10G U11A C12G C13G, the “aptazyme ON/OFF ratio” value was 1.15.
For U7A U8A G9A U10G U11A C12G C13A, the “aptazyme ON/OFF ratio” value was 1.08.
For U7A U8A G9A U10G U11A C12G C13U, the “aptazyme ON/OFF ratio” value was 1.33.
With U7A U8A G9A U11A C12A C13U the “aptazyme ON/OFF ratio” value was 1.07.
With U7A U8A G9A U11A C12A C13A the “aptazyme ON/OFF ratio” value was 1.17.
For U7A U8A G9A U11A C12A C13G, the “aptazyme ON/OFF ratio” value was 1.21.
In the case of U7A U8A G9A U10C C12G C13U, the “aptazyme ON/OFF ratio” value is reported as 1.08.
With U7A U8A G9A U10C C12G C13A the “aptazyme ON/OFF ratio” value was 1.11.
In the case of U7A U8A G9A U10C C12G C13G, the “aptazyme ON/OFF ratio” value is reported as 1.03.
In the case of U7A U8A G9A U10G U11C C12U C13A, the “aptazyme ON/OFF ratio” value is reported as 1.07.
With U7A U8A G9A U10G U11C C12U C13U the “aptazyme ON/OFF ratio” value was 1.23.
For U7A U8A G9A U10G U11C C12U C13G, the “aptazyme ON/OFF ratio” value was 1.19.
With U7A U8A G9A U10G U11C C12G C13U the “aptazyme ON/OFF ratio” value was 1.31.
For U7A U8A G9A U10G U11C C12G C13A, the “aptazyme ON/OFF ratio” value was 1.24.
In the case of U7A U8A G9A U10G U11C C12G C13G, the “aptazyme ON/OFF ratio” value is reported as 1.17.
With U7A U8A G9A U10G U11A the “aptazyme ON/OFF ratio” value was 1.02.
With U7A U8A G9A U10G U11C the “aptazyme ON/OFF ratio” value was 1.04.
In the case of U7A U8A G9A U10G U11G, the “aptazyme ON/OFF ratio” value is reported as 1.07.
In the case of U7A U8A G9A U10A U11C C12U C13G, the “aptazyme ON/OFF ratio” value is reported as 1.08.
With U7A U8A G9A U10A U11C C12U C13A the “aptazyme ON/OFF ratio” value was 1.17.
In the case of U7A U8A G9A U10A U11C C12U C13U, the “aptazyme ON/OFF ratio” value is reported as 1.14.
In the case of U7A U8A G9A U10G U11A C13A, the “aptazyme ON/OFF ratio” value is reported as 1.01.
In the case of U7A U8A G9A U10G U11A C13G, the “aptazyme ON/OFF ratio” value is reported as 1.03.
In the case of U7A U8A G9A U10G U11A C13U, the “aptazyme ON/OFF ratio” value is reported as 0.974.
For U7A U8A G9A U10A U11C C12A C13U, the “aptazyme ON/OFF ratio” value was 1.24.
In the case of U7A U8A G9A U10A U11C C12A C13G, the “aptazyme ON/OFF ratio” value is reported as 1.14.
With U7A U8A G9A U10A U11C C12A C13A the “aptazyme ON/OFF ratio” value was 1.2.
With U7A U8A G9A U11A C12G C13A the “aptazyme ON/OFF ratio” value was 1.14.
For U7A U8A G9A U10G U11G C12A C13A, the “aptazyme ON/OFF ratio” value was 1.2.
With U7A U8A G9A U10G U11G C12A C13G the “aptazyme ON/OFF ratio” value was 1.29.
For U7A U8A G9A U10G U11G C12A C13U, the “aptazyme ON/OFF ratio” value was 1.29.
With U7A U8A G9A U10G C12G C13G the “aptazyme ON/OFF ratio” value was 1.11.
In the case of U7A U8A G9A U10G C12G C13A, the “aptazyme ON/OFF ratio” value is reported as 1.06.
For U7A U8A G9A U10G C12G C13U, the “aptazyme ON/OFF ratio” value was 1.31.
